Data set [1] has as its target T1, SIV integrase (Simian immunodeficiency virus) (UniProt P05897).
T1 sequence: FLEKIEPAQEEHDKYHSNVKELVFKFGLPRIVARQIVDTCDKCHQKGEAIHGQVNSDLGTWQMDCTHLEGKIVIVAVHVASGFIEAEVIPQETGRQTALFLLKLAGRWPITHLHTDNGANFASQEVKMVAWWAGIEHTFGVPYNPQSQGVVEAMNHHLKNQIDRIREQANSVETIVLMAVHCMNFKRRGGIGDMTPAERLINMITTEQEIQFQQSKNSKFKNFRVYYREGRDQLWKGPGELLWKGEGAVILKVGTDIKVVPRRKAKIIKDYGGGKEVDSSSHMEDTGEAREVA
The experiment in a line: inhibition. The conditions noted are these: PS at first and last internucleoside linkages, 3'-OH; 3'-processing.

Data set [2] deals with HIV-1 integrase wild-type (IN1-288) (HIV-1) (UniProt P12497). Briefly: inhibition. The note with it: 3'-processing.

The values below come from patent US6323185.

The term IC50 denotes the point on the concentration scale where inhibition reaches its midpoint.

As to “GTGGTGGGTGGGTGGGT [T30177 (AR177, Zintevir)]”, the IC50 in data set [1] was 420 nM. As to “TCTTCCTCTCTCTACCCACGCTCIC [T30531 antisense GEM91 variant PT]”, in data set [2] (all PS, strand transfer 0.036 uM), the half-maximal inhibitory concentration (IC50) worked out at 30 nM. Turning to “TCTTCCTCTCTCTACCCACGCTCIC [T30658 antisense GEM91 variant PD]”, the IC50 in data set [2] (all phosphodiester, strand transfer >0.5 uM) is more than 500 nM. As to “TCTTCCTCTCTCTACCCACGCTCIC [T30662 antisense GEM91 variant pPT]”, the IC50 in data set [2] (PS at first and last linkages, strand transfer >0.5 uM) was more than 500 nM.
